From patent EP0672680A1 come the findings set out here.

Square brackets hold non-standard residues; d marks the D form.

The test addresses bovine lung-derived ANP receptor (bovine). The experiment in a line: competition radioligand binding: displacement of 125I-rat ANP from bovine lung membrane fraction, filter assay. (In general: Displacement assays read how much labelled ligand stays bound in the presence of the test substance.)

bovine lung-derived ANP receptor (bovine), sequence (P10730 42-537): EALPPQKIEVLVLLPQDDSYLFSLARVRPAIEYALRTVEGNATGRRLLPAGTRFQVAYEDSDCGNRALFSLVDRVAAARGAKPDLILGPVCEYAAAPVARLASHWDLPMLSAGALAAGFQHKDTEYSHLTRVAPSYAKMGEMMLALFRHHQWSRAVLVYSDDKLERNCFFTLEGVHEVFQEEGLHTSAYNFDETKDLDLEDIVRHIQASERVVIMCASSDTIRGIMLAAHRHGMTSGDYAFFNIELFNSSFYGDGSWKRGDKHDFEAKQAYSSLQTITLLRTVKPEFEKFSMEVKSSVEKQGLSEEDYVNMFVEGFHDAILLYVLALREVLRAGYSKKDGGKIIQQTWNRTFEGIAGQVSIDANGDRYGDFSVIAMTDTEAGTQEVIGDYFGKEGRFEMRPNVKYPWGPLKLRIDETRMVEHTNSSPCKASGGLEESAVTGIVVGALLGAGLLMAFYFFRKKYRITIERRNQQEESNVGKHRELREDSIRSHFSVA

B1: compound (j) (H-Phe-Gly-Gly-D-Arg-Ile-Asp-D-Arg-Ile-NH2) (peptide)
peptide: H-FGG[dR]ID[dR]I-NH2
SMILES: CC[C@H](C)[C@H](NC(=O)[C@@H](CCCNC(=N)N)NC(=O)[C@H](CC(=O)O)NC(=O)[C@@H](NC(=O)[C@@H](CCCNC(=N)N)NC(=O)CNC(=O)CNC(=O)[C@@H](N)Cc1ccccc1)[C@@H](C)CC)C(N)=O
In turn, B1 yielded an IC50 of 5400 nM.

B2: compound (i) (H-Phe-Gly-Gly-D-Arg-Ile-Asp-Arg-Ile-NH2) (peptide)
peptide: H-FGG[dR]IDRI-NH2
SMILES: CC[C@H](C)[C@H](NC(=O)[C@H](CCCNC(=N)N)NC(=O)[C@H](CC(=O)O)NC(=O)[C@@H](NC(=O)[C@@H](CCCNC(=N)N)NC(=O)CNC(=O)CNC(=O)[C@@H](N)Cc1ccccc1)[C@@H](C)CC)C(N)=O
In turn, B2 displayed a 50% inhibitory concentration (IC50) of 210 nM.

By IC50 is commonly meant the concentration that inhibits the measured activity by half. High values mean a need for much substance, low ones inhibition by little substance.
